This is an account of results in patent US20030157096A1 (ZymoGenetics, published 2003).

Assay [1] addresses T1, CRF2-4 receptor, full-length, on transfected BaF3 or BHK cells (CRF2-4 alone) (UniProt Q08334 20-325, limits assumed).
T1 construct: whole, on cells; The full-length receptor on cells is tied only to Genbank Z17227; also called CFR2-4; BaF3/CRF2-4
T1 sequence (looked up): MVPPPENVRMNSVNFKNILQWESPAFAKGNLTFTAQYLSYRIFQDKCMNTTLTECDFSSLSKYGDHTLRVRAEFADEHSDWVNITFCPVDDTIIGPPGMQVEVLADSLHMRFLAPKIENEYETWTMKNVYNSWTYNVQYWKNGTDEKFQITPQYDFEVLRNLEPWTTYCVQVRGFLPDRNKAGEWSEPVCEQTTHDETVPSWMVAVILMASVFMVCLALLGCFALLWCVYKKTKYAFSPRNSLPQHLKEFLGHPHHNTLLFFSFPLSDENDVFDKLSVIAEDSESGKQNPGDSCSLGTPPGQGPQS
The experiment in a line: flow cytometry, biotinylated IL-TIF-CEE plus PE-streptavidin on BaF3 transfectants (same results stated for BHK transfectants). An excerpt:
(§1) To test the binding properties of the IL-TIF ligand to several potential receptor components, BaF3 and BHK cells were transfected with expression plasmids including zcytor11 alone, CRF2-4 alone (Genbank Accession No. Z17227), zcytor11 (SEQ ID NO:1) and CRF2-4, or zcytoR11 and pDIRS1 (WIPO Publication WO99/46379, Schering Corporation, 1999), as described above. Untransfected BaF3 and BHK cells were included as controls. Cells were resuspended in FACS wash buffer (WB: PBS/1%BSA, supplemented with 3% human Ultraserum (Gemini BioProducts, Calabasas, Calif.)) counted and 1×10⁶ of each type were aliquoted into 5 ml polystyrene tubes. Cells were washed and pelleted, then incubated for 20 min on ice with 100 μl of WB only, or WB plus 10 μg/ml or 1 μg/ml biotinylated zcytolO protein. Cells were washed with 1.5 ml WB and pelleted, then incubated in 100 μl of 2.5 μg/ml phycoerthyrin-conjugated streptavidin (PE-SA, PharMingen, San Diego, Calif.) for another 20 min on ice. Cells were washed as before, resuspended in 0.4 ml of WB and analyzed on a FACScan using CellQuest software (Becton Dickinson, Mountain View, Calif.).

Assay [2] has as its target T2, zcytor11 and CRF2-4 receptors co-expressed on transfected BaF3 or BHK cells (human, UniProt Q08334 20-325, limits assumed).
T2 construct: whole, on cells; The two receptor subunits are co-transfected in one cell line; also called zcytor11/CRF2-4; BaF3/zcytor11/CRF2-4
T2 sequence 1: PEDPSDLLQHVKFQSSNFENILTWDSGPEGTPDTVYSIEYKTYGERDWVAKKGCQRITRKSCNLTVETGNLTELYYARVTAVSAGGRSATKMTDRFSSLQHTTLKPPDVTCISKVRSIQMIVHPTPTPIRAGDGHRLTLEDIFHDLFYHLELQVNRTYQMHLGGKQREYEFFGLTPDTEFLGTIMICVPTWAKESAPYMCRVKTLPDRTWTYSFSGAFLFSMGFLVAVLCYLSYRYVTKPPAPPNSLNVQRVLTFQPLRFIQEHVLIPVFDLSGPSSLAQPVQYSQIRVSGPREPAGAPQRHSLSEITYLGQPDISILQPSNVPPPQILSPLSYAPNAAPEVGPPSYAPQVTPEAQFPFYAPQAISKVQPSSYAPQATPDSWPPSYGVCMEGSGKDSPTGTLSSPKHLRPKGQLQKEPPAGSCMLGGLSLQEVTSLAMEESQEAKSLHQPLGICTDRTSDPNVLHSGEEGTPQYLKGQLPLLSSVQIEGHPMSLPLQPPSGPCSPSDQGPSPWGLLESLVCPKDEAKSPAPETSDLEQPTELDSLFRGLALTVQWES
T2 sequence 2: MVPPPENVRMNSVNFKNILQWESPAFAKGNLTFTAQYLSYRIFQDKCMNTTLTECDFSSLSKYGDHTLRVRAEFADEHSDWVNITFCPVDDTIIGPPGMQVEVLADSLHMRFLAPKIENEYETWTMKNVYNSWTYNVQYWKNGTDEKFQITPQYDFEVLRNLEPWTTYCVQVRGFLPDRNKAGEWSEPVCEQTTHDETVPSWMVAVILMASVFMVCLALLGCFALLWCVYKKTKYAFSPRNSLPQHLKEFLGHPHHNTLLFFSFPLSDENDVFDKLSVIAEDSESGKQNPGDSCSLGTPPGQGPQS
The assay is described as follows: flow cytometry, biotinylated IL-TIF-CEE at 10 or 1 µg/ml plus PE-streptavidin on BaF3 transfectants (same results stated for BHK transfectants).
Description: as §1

Assay [3] deals with T3, zcytor11 receptor, full-length, on transfected BaF3 or BHK cells (zcytor11 alone) (human, UniProt Q8N6P7 18-574).
T3 construct: also called BaF3/zcytor11
T3 sequence: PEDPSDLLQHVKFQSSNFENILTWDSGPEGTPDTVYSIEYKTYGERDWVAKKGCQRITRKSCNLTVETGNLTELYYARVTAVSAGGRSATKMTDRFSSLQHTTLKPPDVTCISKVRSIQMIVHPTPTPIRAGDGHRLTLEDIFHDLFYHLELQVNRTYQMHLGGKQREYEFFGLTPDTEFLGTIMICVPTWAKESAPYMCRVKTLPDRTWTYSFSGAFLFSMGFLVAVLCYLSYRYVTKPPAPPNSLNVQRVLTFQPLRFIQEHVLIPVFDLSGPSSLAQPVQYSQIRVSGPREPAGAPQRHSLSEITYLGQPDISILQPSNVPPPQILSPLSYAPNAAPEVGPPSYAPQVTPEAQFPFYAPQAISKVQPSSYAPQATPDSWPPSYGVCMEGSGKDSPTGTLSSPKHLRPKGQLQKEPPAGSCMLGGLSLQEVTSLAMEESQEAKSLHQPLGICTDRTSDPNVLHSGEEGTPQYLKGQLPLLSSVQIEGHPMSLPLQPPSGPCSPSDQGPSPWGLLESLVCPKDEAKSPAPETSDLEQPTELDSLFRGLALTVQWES
The description is as above.
Description: as §1

B1: biotinylated human IL-TIF-CEE (ligand)
chain: APISSHCRLDKSNFQQPYITNRTFMLAKEASLADNNTDVRLIGEKLFHGVSMSERCYLMKQVLNFTLEEVLFPQSDRFQPYMQEVVPFLARLSNRLSTCHIEGDDLHIQRNVQKLKDTVKKLGESGEIKAIGELDLLFMSLRNACIEYMPME
modifications: biotinylated with EZ-link Sulfo-NHS-LC-biotin (sites not given)
notes: also called biotin-IL-TIF; IL-TIF ligand
In the case of B1, the binding result in assay [1] is “no binding (tested: 10 µg/ml or 1 µg/ml biotinylated protein)”; in assay [2], “binds”; in assay [3], “binds”.
